Experimental data from PMC4048220, “Exploring the Electron Transfer Pathway in the Oxidation of Avermectin by CYP107Z13 in Streptomyces ahygroscopicus ZB01” (PLoS ONE, 2014).

Experiments:
[1] = substrate: NC(=O)C1=CN([C@@H]2O[C@H](COP(=O)(O)OP(=O)(O)OC[C@H]3O[C@@H](n4cnc5c(N)ncnc54)[C@H](O)[C@@H]3O)[C@@H](O)[C@H]2O)C=CC1; test: spectrophotometric DCPIP reduction; assay type: biochemical, Streptomyces ahygroscopicus; conditions: DCPIP as electron acceptor
[2] = substrate: NC(=O)C1=CN([C@@H]2O[C@H](COP(=O)(O)OP(=O)(O)OC[C@H]3O[C@@H](n4cnc5c(N)ncnc54)[C@H](O)[C@@H]3O)[C@@H](O)[C@H]2O)C=CC1; test: spectrophotometric DCPIP reduction; assay type: biochemical, Streptomyces hygroscopicus; conditions: DCPIP as electron acceptor

B1: FdR28 (Streptomyces ahygroscopicus; V1M) (protein)
chain: MVVGASLAGLRAAEALRGEGFTGSLTMIGDELGEPYDRPPLSKQVLTGWVPADNTKLPRRRDVDAEWLLGVPASGLDLANNHVRLADGRQVPFDRVPISTGVRARPWFVESEAALDGVFVVRTREHAEALQRALAAGPSRVLVIGAGFTGSEIASVCRERDIPVTVAELAPAPLVGALGAMIGDVAADVQRAHGVDLRCGVKVTQLEGDAQGRLRRAHFDDGTTVDADVAVVALGGIRNTDWLRDSGLAAGVWGIACDTGCRALDLNGLVTDDVFVAGDVARCPNPIYEYRLISLEHWANAVEQAEVAAHNMVSGQADRWPHLTLPLFWSIQFGINIKSVGVPTFADEVVVTQGSVPDHRFVAAYGYRGRVTAAVSFNNAKWLDHHRRLIETAAPFPPLCPTPDQPADTKPVPVDFPGPALLAQGATVVVTGHDPSERRVTAAYQHR
notes: FAD flavoprotein; pRSET-b (vector His tag), E. coli BL21(DE3), Ni-Sepharose purified; GTG start changed to ATG; cloning primers encode N-terminal MVVGAS, C-terminal TAAYQHR
Km [1]: 25.4 µM
kcat [1]: 386 min⁻¹

B2: FdR18 (Streptomyces hygroscopicus) (protein)
chain: MVDAHQTFVIVGGGLAGAKAAETLRAEGFTGRVILICDERDHPYERPPLSKGYLLGKEERDSVFVHEPAFYAQARIELHLGQPAVHLDPAARTVRLGDGTLIAYDKLLLATGAEPRRLDVPGTGLAGVHHLRRLAHAERLRGVLASLGRENGHLVIAGAGWIGLEVAAAARSYGAEVTIIEPEPTPLHGILGPELGALFTDLHAEHGVRFHFGARLTEIVGQDGMVVSVRTDDGEEHPAHDVLAAIGAAPRTALAEQAGLDVVDRADGGGIAVDAALRTSDPFIHAAGDVAAADHPLLDTRLRVEHWANALNGGPAAARAMLGQDISYDRVPYFFSDQYDLGMEYSGYAPPGSYDQVVCRGDVGKREFIAFWLREGRVLAGMNVNVWDVAGDVQQLIRSGTPLDPEKLTDPTVPLTSLLP
notes: FAD flavoprotein; pRSET-b (vector His tag), E. coli BL21(DE3), Ni-Sepharose purified; GTG start changed to ATG; cloning primers encode N-terminal MVDAHQT, C-terminal LTSLLP
Km [2]: 64 µM
kcat [2]: 121 min⁻¹
